Measurements from paper PMC7111943.

Biological target: T1, GST-N (TGEV nucleocapsid protein) (Transmissible gastroenteritis …, UniProt P04134 1-382)
T1 sequence: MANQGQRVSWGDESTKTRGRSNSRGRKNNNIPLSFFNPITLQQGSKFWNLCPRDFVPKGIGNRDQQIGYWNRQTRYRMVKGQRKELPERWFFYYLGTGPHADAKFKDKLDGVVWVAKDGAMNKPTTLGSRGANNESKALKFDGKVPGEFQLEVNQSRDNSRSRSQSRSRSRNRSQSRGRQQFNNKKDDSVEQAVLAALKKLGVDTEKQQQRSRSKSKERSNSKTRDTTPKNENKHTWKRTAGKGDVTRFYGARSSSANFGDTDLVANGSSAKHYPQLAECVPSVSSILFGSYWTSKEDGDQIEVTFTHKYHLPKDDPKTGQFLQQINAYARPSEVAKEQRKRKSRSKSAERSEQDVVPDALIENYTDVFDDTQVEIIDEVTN
Assay: EMSA

B1: TRS-L (ssRNA)
RNA: UCGAACUAAACGAAAU
binding result: binds
